From patent publication US7005130 come the findings set out here.

Assay [1] deals with HPLC-purified recombinant ORF2 capsid protein of swine HEV (baculovirus-expressed) (swine HEV). Briefly: ELISA, antigen coated at 2 µg/ml, serum 1/200; negative control.
Assay [2] deals with HPLC-purified recombinant ORF2 capsid protein of human HEV Sar-55 (baculovirus-expressed) (human HEV, Sar-55 strain (Pakistan)) (UniProt P33426). The assay is described as above.
Sequence of UniProt P33426 (P33426 112-607): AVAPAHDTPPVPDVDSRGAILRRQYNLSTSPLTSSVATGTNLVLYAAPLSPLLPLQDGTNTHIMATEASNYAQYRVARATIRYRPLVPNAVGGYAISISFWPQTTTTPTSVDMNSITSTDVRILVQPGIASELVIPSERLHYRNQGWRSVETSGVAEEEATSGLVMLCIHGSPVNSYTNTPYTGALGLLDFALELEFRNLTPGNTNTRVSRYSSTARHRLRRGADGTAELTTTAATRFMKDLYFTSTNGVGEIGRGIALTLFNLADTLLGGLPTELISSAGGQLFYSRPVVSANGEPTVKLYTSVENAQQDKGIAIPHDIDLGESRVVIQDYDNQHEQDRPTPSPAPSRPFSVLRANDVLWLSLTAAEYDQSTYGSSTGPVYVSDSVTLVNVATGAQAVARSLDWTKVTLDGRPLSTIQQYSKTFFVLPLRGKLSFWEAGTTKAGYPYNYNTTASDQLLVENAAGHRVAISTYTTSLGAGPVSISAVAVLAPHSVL

On to “preinoculation control chicken serum (antibody)”, for which the OD in assay [1] is 0.103 OD at 405 nm; in assay [2], 0.142 OD at 405 nm.
